In assay [1] the target is TEV-cleaved wild-type recombinant human galectin-10 (soluble, in Fab complexes, or as recombinant galectin-10 crystals / CLCs) (human) (UniProt Q05315). The experiment in a line: cell-based or functional assay.
The target of assay [2] is human galectin-10-His (recombinant human galectin-10 with TEV-cleavable N-terminal His-tag) (human). Description: ELISA, scFv-hFc on coated galectin-10-His (0.2 ug/mL).
Assay [3] deals with T1, human galectin-10-His (recombinant human galectin-10 with TEV-cleavable N-terminal His-tag) (human).
T1 construct: SEC-MALLS: dimer in solution; also called Gal10-His; humanGal10-His
T1 chain: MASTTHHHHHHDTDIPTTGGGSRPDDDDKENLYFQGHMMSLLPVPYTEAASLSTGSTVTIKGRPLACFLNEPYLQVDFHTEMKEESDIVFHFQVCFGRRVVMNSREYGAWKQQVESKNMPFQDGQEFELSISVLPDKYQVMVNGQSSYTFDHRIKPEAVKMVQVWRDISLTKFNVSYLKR
The description is as above. Here is the method: In a similar setup to that used during the initial screening, the relative binding properties of the 12 scFv-human Fc clones were analyzed by ELISA. Briefly, a Maxisorp plate was coated with galectin-10-His at 0.2 μg/mL and blocked with casein, before being incubated with a serial dilution of the scFv-human Fc fusion molecules. After several washing steps, detection of the bound scFv-human Fc was carried out with an anti-human Fc-HRP antibody. Absorbance was measured at 450 nm (reference at 620 nm) with Tecan instrument. Finally, the raw data (OD values) were plotted on GraphPad Prism 7.01. The EC50 value of each compound was calculated with a non-linear regression (log(agonist) vs. response Variable slope (four parameters)).

Assay [4] deals with T1, human galectin-10-His (recombinant …). The experiment in a line: SPR Biacore T3000, scFv-hFc captured by anti-human Fc, galectin-10-His as analyte.
Assay [5] has the same target. The description is as above. Here is the method: (§1) In order to determine the binding properties (on-rate/off-rate) of the scFv-human Fc panel, their binding capacity to galectin-10 was analyzed on Biacore T3000. For this purpose, a capture approach was set up. A CM5 Chip was coated with polyclonal anti-human Fc at 8000 RU, then a fixed concentration of the scFv-human Fc panel (1.5 μg/mL), diluted in HBS-EP pH7.4, were captured to reach a binding signal around 150 RU. Finally, a serial dilution of galectin-10-His (serial dilution, 1 over 2 from 5 μg/mL, 6 points of dilution) diluted in HBS-EP pH7.4 was injected. Raw data were analyzed via BIA evaluation software with a blank subtraction (4-3). The kd/KD and Rmax of each scFv-human Fc for galectin-10-His was determined using the Fit Kinetics simultaneous ka/kd/Binding with mass transfer/Local Rmax on BIA evaluation software.

The target of assay [6] is T2, cynomolgus galectin-10-His, YRT isoform (cynomolgus).
T2 sequence: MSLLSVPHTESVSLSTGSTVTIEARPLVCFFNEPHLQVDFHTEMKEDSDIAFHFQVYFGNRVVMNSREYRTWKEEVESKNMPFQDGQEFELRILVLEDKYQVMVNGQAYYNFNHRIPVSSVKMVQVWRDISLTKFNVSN
Description: ELISA, coated antigen 0.5 ug/mL.

The target of assay [7] is T3, recombinant human galectin-10, TEV-cleaved (human, UniProt Q05315 1-142).
T3 sequence: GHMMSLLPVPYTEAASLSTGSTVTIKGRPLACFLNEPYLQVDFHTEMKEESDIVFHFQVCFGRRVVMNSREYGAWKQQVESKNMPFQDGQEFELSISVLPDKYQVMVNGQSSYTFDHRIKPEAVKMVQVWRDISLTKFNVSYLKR
The experiment in a line: cell-based or functional assay.

Assay [8] has as its target T3, recombinant human galectin-10, …. The experiment in a line: cell-based or functional assay. This is another data set of the same source.
The target in assay [9] is T4, human galectin-10-His (human).
T4 construct: The last M of the tag may be Met1 of galectin-10; also called humanGal10-His; hGal10
T4 chain: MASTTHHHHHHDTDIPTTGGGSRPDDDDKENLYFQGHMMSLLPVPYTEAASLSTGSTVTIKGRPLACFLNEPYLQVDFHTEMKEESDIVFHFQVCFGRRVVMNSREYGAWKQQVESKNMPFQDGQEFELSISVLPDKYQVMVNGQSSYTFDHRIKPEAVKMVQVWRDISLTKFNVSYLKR
Description: ELISA, coated antigen 0.5 ug/mL. Here is the method: (§2) In a similar setup to that used during the characterization of the scFv-human Fc molecules, the relative binding properties of the 7 mouse IgG1 antibodies were analyzed by ELISA. A Maxisorp plate was coated overnight with 0.5 μg/mL of human or cynomolgus WGS or YRT isoform of galectin-10-His. Then a serial dilution of each clone (from 100 nM, dilution 1/4, 12 points of dilutions) was incubated on coated galectin-10. After several washing steps, detection of the bound mouse IgG1 was carried out with an anti-mouse Fc-HRP antibody (DAMPO, Jackson ImmunoResearch, Catalog 715-035-150). Absorbance was measured at 450 nm (reference at 620 nm) with Tecan instrument. The raw data (OD values) were plotted on GraphPad Prism 7.01. The EC50 values for each antibody, calculated with a non-linear regression (log(agonist) vs. response Variable slope (four parameters)), are shown in the table below. Antibody 1D11 from the previous panel was included for comparison.

For assay [10], the target named is T5, cynomolgus galectin-10-His, WGS isoform (cynomolgus).
T5 construct: also called cynoGal10-WGS; not shown: His tag
T5 chain: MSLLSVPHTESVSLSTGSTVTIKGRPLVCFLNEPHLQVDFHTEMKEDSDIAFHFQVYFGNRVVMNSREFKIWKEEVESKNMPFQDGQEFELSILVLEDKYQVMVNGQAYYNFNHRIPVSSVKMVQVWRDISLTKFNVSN
Description: ELISA, coated antigen 0.5 ug/mL. Here is the method:
as §2

Assay [11] has as its target T4, human galectin-10-His. Description: SPR Biacore T3000, mouse IgG1 captured. Here is the method:
(§3) The binding capacity of the mouse IgG1 antibody panel to galectin-10 was analysed on Biacore T3000. For this purpose, a capture approach was used, where a fixed concentration (1.5 μg/mL) of the mouse IgG1 clone was captured by polyclonal anti-mouse Fc antibodies immobilized on CM5 Chip to reach a binding signal around 150 RU. Then a serial dilution of human and cynomolgus WGS isoform of galectin-10-His (serial dilution, 1 over 2 from 5 μg/mL) diluted in HBS-EP pH7.4 was injected. Raw data were analysed via BIA evaluation software with a blank subtraction. The kd/KD and Rmax of each mAbs to galectin-10-His was determined using the Fit Kinetics simultaneous ka/kd/Binding with mass transfer/Local Rmax on BIA evaluation software.

Assay [12] has as its target T5, cynomolgus galectin-10-His, WGS isoform. The experiment in a line: SPR Biacore T3000, mouse IgG1 captured. Here is the method: as §3
Assay [13] concerns the target T6, cynomolgus galectin-10-His, WGS isoform (cynomolgus).
T6 construct: not shown: His tag
T6 chain: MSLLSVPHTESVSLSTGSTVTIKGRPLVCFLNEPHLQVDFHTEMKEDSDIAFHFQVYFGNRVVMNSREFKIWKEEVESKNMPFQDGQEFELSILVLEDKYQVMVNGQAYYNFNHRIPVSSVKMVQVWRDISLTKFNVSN
Description: ELISA, VHH on coated cynomolgus WGS galectin-10-His (1 ug/mL).

In assay [14] the target is T7, cynomolgus galectin-10-His, YRT isoform (cynomolgus).
T7 construct: not shown: His tag
T7 chain: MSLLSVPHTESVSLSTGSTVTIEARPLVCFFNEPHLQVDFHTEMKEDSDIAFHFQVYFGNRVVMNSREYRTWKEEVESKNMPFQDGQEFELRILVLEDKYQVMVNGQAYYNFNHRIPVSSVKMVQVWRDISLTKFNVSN
Description: ELISA, VHH on coated cynomolgus YRT galectin-10-His (1 ug/mL).

The target of assay [15] is T8, TEV-cleaved wild-type recombinant human galectin-10 (soluble, in Fab complexes, or as recombinant galectin-10 … (human, UniProt Q05315 1-142)).
T8 sequence: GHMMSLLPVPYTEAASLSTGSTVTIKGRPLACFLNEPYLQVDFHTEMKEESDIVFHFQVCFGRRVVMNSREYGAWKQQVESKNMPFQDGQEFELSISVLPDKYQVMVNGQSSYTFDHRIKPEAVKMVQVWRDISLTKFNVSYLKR
The experiment in a line: cell-based or functional assay.

Assay [16] has as its target T8, TEV-cleaved wild-type recombinant human …. The experiment in a line: cell-based or functional assay. This is another data set of the same source.
Assay [17] has the same target. The experiment in a line: cell-based or functional assay. The source holds these as a separate data set.
Assay [18] deals with T1, human galectin-10-His (recombinant …). Description: ELISA binding (summary table), scFv-human Fc.
Assay [19] has the same target. The experiment in a line: Biacore capture approach (summary table), scFv-human Fc. Here is the method:
as §1

Where two headings read alike, the source gives them in different places.

Consider “Isotype control, scFv-human Fc (irrelevant scFv-human Fc) (Fc fusion)”, for which the CLC formation (crystallization robot assay) in [1] came to 100%. Further, in assay [2], the Bmax (OD values) is 0.018 OD.

B1: 6A11 scFv-human Fc (Fc fusion)
scFv: ELQLVESGGGLVQPGGSLRLSCSASGFTFGAYAMNWVRQAPGKGLEWVSGVNSGGGLTSYGESVKGRFTISRDNAKNTLYLQMNRLNPDDTAVYYCAKSKRGAVVAGTGDDYWGQGTQVTVSSGGGGSGGGGSGGGGSSSALTQPSAVSVSLGQTARITCQGGNFGRYYVSWYQQKPGQAPVLVIYKDSERPSGIPERFSGSSSGDTATLTISGAQAEDEADYYCQSGSSSDNAVFGGGTHLTVL
notes: about 100 kDa on SDS-PAGE; also called 6A11 ScFv-hFc; not shown: CH2-CH3 constant domains of human IgG1 (vector pUPEX50)
Consider B1, for which, in [3], the “Bmax (OD values)” value amounted to 1.59 OD and the EC50 was found to be 0.01 nM. For the same molecule, the Kd in assay [4] is more than 17 nM. In addition, in [5], the Kd is 0.711 nM and the koff stood at 0.124 s⁻¹.

B2: 6F11 scFv-human Fc (Fc fusion)
scFv: QVQRQESGPGLVKPSQTLSVTCTVSGGSITTGPYSWSWIRQPPGKGLEWIGYIGYSGSTYYSPSLKSRTSISRDTSNNQFSLQLSSVTPEDTAVYYCARSRSSPTTFGMDYWGKGTLVTVSSGGGGSGGGGSGGGGSSSALTQPSAVSVSLGQTARITCQGGDFGRYYVAWYTQKPGQAPVLVIYQDSERPSGIPERFSGSSSGDTATLTISGAQAEDEAEYYCQSGISSDNIVFGGGTHLTVL
notes: about 100 kDa on SDS-PAGE; also called 6F11 ScFv-hFc; not shown: CH2-CH3 constant domains of human IgG1 (vector pUPEX50)
Turning to B2, in assay [3], the “Bmax (OD values)” value worked out at 1.56 OD and the EC50 came out at 0.48 nM. Also, the Kd in assay [4] was more than 17 nM. In addition, in assay [5], the Kd was 2.96 nM and the koff is 0.0172 s⁻¹.

B3: 7B07 mouse IgG1 (antibody, V domains shown)
VH: QVQLVESGGGLVQPGGSLRLSCAASGFTFRSYDMSWVRQAPGKGPEWVSAIKNGGGITYYADSVKGRFTISRDNAKNTLYLQMNSLKPEDTAVYYCATTHGIGTLGFGSWGQGTQVTVSS
VL: SYELTQSASVSVALTQTAKITCDGNNIGSKSAQWYQQKPGQAPALVIYADEYRPEGIPERFSGSNSGNTATLIISGAQAEDEADYYCQVWDGSAAVFGRGTHLTVL
notes: VH and VL cloned in frame with mouse IgG1 constant domains; also called 7B07 mIgG1
As to B3, the OD values in [6] worked out at 0.01 OD. Moreover, in assay [7], the “50% dissolution (min) of CLCs, antibody 50 uM” value is 13.2 min and the “90% dissolution (min) of CLCs, antibody 50 uM” value worked out at 44.4 min. Moreover, in [8], the “50% crystal dissolution (min), 50 uM” value amounted to 31.8 min and the “90% crystal dissolution (min), 50 uM” value was 93 min. In assay [9], the EC50 amounted to 0.57 nM and the OD values is 0.4 OD. In assay [10], this molecule gave an EC50 of 0.06 nM and an OD values of 3.22 OD. In assay [11], the dissociation constant (Kd) amounted to 1.4 nM, the koff was found to be 0.0039 s⁻¹ and the kon was 2.78e+06 M⁻¹ s⁻¹. In addition, in assay [12], the Kd was determined as 1.5 nM, the koff was 0.066 s⁻¹ and the kon is 4.54e+07 M⁻¹ s⁻¹.

B4: VHH 1D06 (purified, Myc-His tagged) (VHH, not shown: small tags and cut ends)
VHH: QLQLVESGGGLVQPGGSLRLSCAASENSVSTYAMGWFRQAPGKEREFVAAITRAGGNTYNADSVKGRFTISRDNAENTIYLQMNSLKPEDTAVYSCAAGPRYSTISTMFPYWGQGTQVTVSS
notes: also called 1D6
As for B4, the binding result in [13] and in assay [14] was “no binding” in each case.

B5: 6F05 scFv-human Fc (Fc fusion)
scFv: QLQLVESGGGLVQPGGSLRLSCAASGFTFSSYAMSWVRQAPGKGLEWVSAINSGGGSTSYADSVKGRFTISRDNAKNTLYLQMNSLKPEDTAVYYCATPGDRLWYYRYDYWGQGTQVTVSSGGGGSGGGGSGGGGSQAGLTQPPSVSGTLGKAVTISCAGTSSDIGYGNYVSWYQQLPGTAPKLLIYKVSRRASGVPDRFSGSKSGNTASLSISGLQSEDEADYYCASYRYRNNVVFGGGTHLTVL
notes: about 100 kDa on SDS-PAGE; also called 6F5; 6F05 ScFv-hFc; not shown: CH2-CH3 constant domains of human IgG1 (vector pUPEX50)
With B5, the “dissolution of in vitro grown Gal10 crystals (spinning disk confocal microscopy)” value in [15] was not above 90 min. In addition, the “100% Solubilization of CLC (Conc uM)” value in [16] and in [17] was 4 µM throughout. For the same molecule, the “100% Inhibition of CLC formation (Conc uM)” value in assay [17] came out at 1 µM. Further, the EC50 in assay [18] and in assay [3] was 0.02 nM in each case. The “Bmax (OD values)” value in assay [3] was determined as 2.9 OD. The Kd was found to be 0.9 nM in assay [19] and 0.918 nM in assay [5]. Moreover, the koff in [19] worked out at 0.00012 s⁻¹; in assay [5] it was 0.000117 s⁻¹.

These data come from patent US20190367619A1 (ARGENX, published 2019).
